In patent US20250376511A1 (Sanofi, published 2025):

Columns and labels:
[1] = target: T1, Human active C1s (Complement Technology) (human, UniProt P09871 16-688); test: cell-based or functional assay
T1 sequence: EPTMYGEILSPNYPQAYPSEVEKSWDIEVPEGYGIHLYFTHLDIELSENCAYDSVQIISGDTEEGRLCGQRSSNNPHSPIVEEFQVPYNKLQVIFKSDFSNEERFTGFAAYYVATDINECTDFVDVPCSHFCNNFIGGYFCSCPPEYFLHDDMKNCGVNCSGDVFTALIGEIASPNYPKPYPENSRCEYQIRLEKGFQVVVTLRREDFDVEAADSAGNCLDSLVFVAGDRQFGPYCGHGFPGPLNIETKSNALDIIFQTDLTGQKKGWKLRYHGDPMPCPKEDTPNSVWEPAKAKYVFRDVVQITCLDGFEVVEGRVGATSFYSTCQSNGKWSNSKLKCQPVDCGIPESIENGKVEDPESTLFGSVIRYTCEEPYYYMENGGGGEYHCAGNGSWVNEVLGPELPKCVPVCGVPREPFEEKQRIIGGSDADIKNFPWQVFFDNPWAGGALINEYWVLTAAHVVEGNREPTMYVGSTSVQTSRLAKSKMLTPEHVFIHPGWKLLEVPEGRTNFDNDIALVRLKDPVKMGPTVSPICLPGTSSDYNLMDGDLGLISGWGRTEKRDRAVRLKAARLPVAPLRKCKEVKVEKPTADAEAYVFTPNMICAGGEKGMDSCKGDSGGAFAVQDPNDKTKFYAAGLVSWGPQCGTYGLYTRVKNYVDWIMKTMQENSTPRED

[2] = target: T2, His-tagged recombinant human TfR (produced in-house) (human, UniProt P02786 89-760); test: affinity of bispecific purified from CHO cells (SPR; details not restated)
T2 construct: also called hTfR; transferrin receptor 1
T2 sequence (P02786 89-760 limits assumed): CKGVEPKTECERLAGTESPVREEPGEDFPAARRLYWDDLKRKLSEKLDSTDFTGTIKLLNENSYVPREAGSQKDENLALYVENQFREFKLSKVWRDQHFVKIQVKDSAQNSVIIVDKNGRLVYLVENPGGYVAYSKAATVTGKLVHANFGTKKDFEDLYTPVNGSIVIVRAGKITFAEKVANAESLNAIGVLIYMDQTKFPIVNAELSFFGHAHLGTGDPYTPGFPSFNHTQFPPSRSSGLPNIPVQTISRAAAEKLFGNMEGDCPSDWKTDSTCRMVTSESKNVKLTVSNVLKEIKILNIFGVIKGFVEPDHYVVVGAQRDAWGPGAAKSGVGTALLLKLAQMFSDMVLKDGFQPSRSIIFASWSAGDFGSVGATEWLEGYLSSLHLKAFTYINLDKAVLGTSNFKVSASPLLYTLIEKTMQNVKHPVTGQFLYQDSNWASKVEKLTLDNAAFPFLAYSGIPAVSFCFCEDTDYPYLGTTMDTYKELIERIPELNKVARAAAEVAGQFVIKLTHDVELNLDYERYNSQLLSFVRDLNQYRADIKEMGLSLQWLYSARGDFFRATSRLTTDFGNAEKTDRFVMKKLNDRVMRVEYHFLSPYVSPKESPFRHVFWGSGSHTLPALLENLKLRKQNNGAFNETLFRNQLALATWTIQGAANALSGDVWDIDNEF

[3] = target: T3, cynomolgus TfR (cynomolgus, UniProt H9EXL1 89-760 (rhesus entry)); test: as above
T3 construct: also called Cyno TfR; cTfR
T3 sequence (chain, as listed by the source): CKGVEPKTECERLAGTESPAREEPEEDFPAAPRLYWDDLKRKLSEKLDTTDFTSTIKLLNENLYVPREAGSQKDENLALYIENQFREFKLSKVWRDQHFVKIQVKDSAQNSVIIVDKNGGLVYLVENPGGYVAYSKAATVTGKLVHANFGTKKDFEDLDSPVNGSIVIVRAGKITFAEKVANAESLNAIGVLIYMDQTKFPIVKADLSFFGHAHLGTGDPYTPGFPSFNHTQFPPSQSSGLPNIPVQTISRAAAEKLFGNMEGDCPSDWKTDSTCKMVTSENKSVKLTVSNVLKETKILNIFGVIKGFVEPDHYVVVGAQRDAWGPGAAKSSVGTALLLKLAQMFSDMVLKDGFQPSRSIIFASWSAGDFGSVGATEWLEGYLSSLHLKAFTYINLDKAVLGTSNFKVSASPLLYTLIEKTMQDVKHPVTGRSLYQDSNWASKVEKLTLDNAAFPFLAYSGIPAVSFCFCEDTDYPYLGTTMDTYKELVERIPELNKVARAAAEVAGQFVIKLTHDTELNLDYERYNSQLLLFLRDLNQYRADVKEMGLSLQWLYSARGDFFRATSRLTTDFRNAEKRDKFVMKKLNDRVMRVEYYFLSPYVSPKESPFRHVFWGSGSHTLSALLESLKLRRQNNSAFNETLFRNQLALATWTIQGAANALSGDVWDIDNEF

[4] = target: T1, Human active C1s (Complement Technology); test: as above
[5] = target: T4, cynomolgus aC1s (cynomolgus, UniProt A0A2K5VQX9 16-685); test: as above
T4 construct: also called Cyno aC1s; caC1s
T4 sequence: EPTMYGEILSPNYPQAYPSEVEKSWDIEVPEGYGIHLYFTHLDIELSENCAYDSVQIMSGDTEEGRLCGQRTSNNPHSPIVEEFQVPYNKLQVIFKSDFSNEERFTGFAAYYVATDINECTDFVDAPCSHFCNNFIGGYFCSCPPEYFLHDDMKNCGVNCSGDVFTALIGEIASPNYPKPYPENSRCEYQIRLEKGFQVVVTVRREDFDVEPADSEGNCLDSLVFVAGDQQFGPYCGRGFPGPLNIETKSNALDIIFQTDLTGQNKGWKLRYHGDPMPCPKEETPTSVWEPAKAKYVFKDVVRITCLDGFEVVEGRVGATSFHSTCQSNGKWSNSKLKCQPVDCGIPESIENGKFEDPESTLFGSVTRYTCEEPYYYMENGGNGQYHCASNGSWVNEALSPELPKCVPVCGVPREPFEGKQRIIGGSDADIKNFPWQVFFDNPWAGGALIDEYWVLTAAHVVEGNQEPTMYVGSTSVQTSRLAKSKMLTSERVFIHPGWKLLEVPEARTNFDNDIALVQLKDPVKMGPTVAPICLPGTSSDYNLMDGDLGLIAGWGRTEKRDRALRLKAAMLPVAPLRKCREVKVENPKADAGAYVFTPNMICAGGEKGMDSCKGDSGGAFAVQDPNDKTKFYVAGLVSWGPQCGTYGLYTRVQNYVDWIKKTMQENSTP

[6] = target: T1, Human active C1s (Complement Technology); test: cell-based or functional assay; remark: listed apart in the source

IC50, Wieslab Complement Pathway Assay [1]: 1.08 µg/mL
IC90, Wieslab Complement Pathway Assay [1]: 7.6 µg/mL
Kd [2]: 28.6 nM
Kd [3]: 43.7 nM
Kd [4]: 3.31 nM
Kd [5]: 0.248 nM
IC50, C3d deposition on neurons in iPSC tri-cultures with 3% serum [6]: 23.5 µg/mL
B1: bispecific anti-aC1s (L4)/anti-TfR (531v25.v6) IgG4 antibody (bispecific antibody)
heavy 1: QVQLVQSGAEVKKPGASVKLSCTASGFNIKDDYIHWVKEAPGQGLEWIGRIDPADGHTKYAPKFQVKVTITADTSTSTAYLELSSLRSEDTAVYYCARYGYGREVFDYWGQGTTVTVSSASTKGPSVFPLAPCSRSTSESTAALGCLVKDYFPEPVTVSWNSGALTSGVHTFPAVLQSSGLYSLSSVVEVPSSSLGTKTYTCNVDHKPSNTKVDERVESDYGPPCPPCPAPEFEGGPSVFLFPPKPKDTLMISRTPEVTCVVVDVSQEDPEVQFNWYVDGVEVHNAKTKPREEQFNSTYRVVSVLTVLHQDWLNGKEYKCKVSNKGLPSSIEKTISKAKGQPREPQVCTLPPSQEEMTKNQVSLSCAVKGFYPSDIAVEWESNGQPENNYKTTPPVLDSDGSFFLVSRLTVDKSRWQEGNVFSCSVLHEALHSRFTQKSLSLSLG
light 1: DIVMTQSPDSLAVSLGERATISCKSSQSVDYEGDSYLNWYQKKPGQPPKLLIYDASNLESGVPDRFSGSGSGTDFTLTISSLQAEDVAVYYCQQSNEDPWTFGQGTKVEIKRTVAAPAVFIFPPSKKQLKSGTASVVCLLKNFYPREAKVQWKVDNALQSGNSQESVTEQDSKDSTYSLSSTLTLSKADYEKHKVYACEVTHQGLSSPVTKSFNRGEC
heavy 2: QVQLVQSGAEVKKPGASVKVSCKASGYTFTRYYLNWVRKAPGQGLEWIGMIDPSVSETHYAQKFQGRATLTVDKSTSTAYMELSSLRSEDTAVYYCSQIRLPYYYAMDSWGQGTTVTVSSASTKGPSVFPLAPCSRSTSESTAALGCLVKDYFPEPVTVSWNSGALTSGVHTFPAVLQSSGLYSLSSVVTVPSSSLGTKTYTCNVDHKPSNTKVDKRVESKYGPPCPPCPAPEFEGGPSVFLFPPKPKDTLMISRTPEVTCVVVDVSQEDPEVQFNWYVDGVEVHNAKTKPREEQFNSTYRVVSVLTVLHQDWLNGKEYKCKVSNKGLPSSIEKTISKAKGQPREPQVYTLPPCQEEMTKNQVSLWCLVKGFYPSDIAVEWESNGQPENNYKTTPPVLDSDGSFFLYSRLTVDKSRWQEGNVFSCSVLHEALHSHYTQKSLSLSLG
light 2: DIQMTQSPSSLSASVGDRVTITCRASQDIESFLNWYQEKPGKAPKLLIYYTSRLQSGVPSRFSGSGSGTDYTLTISSLQPEDFATYYCQQGNTLPRTFGGGTKVEIKRTVAAPSVFIFPPSDEQLKSGTASVVCLLNNFYPREAKVQWKVDNALQSGNSQESVTEQDSKDSTYSLSSTLTLSKADYEKHKVYACEVTHQGLSSPVTKSFNRGEC
notes: Purified from CHO cells; monovalent for aC1s
